The target in this assay is Caut-bCAstrepC (C-terminal STREPII-tagged β-class carbonic anhydrase of Clostridium autoethanogenum) (Clostridium autoethanogenum). As to the kind of experiment: AUC; sedimentation velocity, 50,000 rpm, 2-fold protein dilution series starting at 0.7 mg/ml, absorbance at 280 nm and interference optics; SEDFIT c(s) and non-interacting discrete species (NIDS) models.

The term stoichiometry N denotes a count of units in the complex or per binding partner. Take “Caut-bCAstrepC (C-terminal STREPII-tagged β-class carbonic anhydrase of Clostridium autoethanogenum) (enzyme)”: the stoichiometry N came to 2.

The values are drawn from article PMC6690855.
